According to PMC11602165, “A bacterial transcription activator dedicated to the expression of the enzyme catalyzing the first committed step in fatty acid biosynthesis” (Nucleic Acids Research, 2024):
Where “and” joins values, the source holds several entries; their conditions need not be identical. Equal values may be shown once. One block for each molecule: values may come before it.

Experiments:
[1] = molecular target: AccR (LysR-type transcriptional regulator, SO_0839) (Shewanella oneidensis, UniProt Q8EIK0); experiment: ITC in HEPES buffer (Kd […]); also MST ([…]); no binding seen by ITC in Tris buffer
[2] = molecular target: the molecule itself; experiment: crystal structure; AccR EBD (residues 86-303), apo form, hanging-drop vapor diffusion, 27.5% PEG 4000, 100 mM HEPES pH 7.0, 20°C; space group C2, one dimer in the asymmetric unit
[3] = molecular target: the molecule itself; experiment: SEC; His-tagged recombinant AccR purified from E. coli run on a Superdex 200HR 10/30 column (FPLC); two peaks with estimated molecular weights of ~67 and ~140 kDa

Kd [1]: 8.4 ± 1.3 µM
Molecule: CC(=O)SCCNC(=O)CCNC(=O)[C@H](O)C(C)(C)COP(=O)(O)OP(=O)(O)OC[C@H]1O[C@@H](n2cnc3c(N)ncnc32)[C@H](O)[C@@H]1OP(=O)(O)O [acetyl-CoA]

B1: AccR effector-binding domain (EBD, residues 86-303) (domain or fragment, Shewanella oneidensis, UniProt Q8EIK0 86-303, looked up)
chain: THDDVSGSLRIAIPVSFSQELIANLCSGFMRLYPNVELDVQFTDNDIGLVGEGYDIAIKYGPLQSSDLVARLLFERQPILVASPGYLKTRGTPATPKELSDHSGILLGTSRSAPIWPLGKGTRKTMVSFQRKVRVNSPIMVKQLALDDFGIAMLSNSACKTELANGQLVPILQEWPMEPFKVYGVYSSRRQLATNISAFLDFFVKRFSSQESLQSLMG
notes: the model holds residues 89-302 (subunit A) and 90-300 (subunit B); The methods describe expression in M9 medium with selenomethionine, but also say that diffraction data were collected with native protein crystals; also called AccR EBD; regulatory domain; source: E. coli BL21(DE3), pET-28a, purified (Ni-NTA, size-exclusion chromatography)
binding result [2]: binds

B2: AccR (SO_0839), LysR-type transcriptional regulator, His6-tagged recombinant (natural protein, Shewanella oneidensis, UniProt Q8EIK0 1-303, looked up)
chain: MPDLNGMMLFAAVVRAKGFSQAARETGHPKSTISRKIAQLEEELGVRLLQRDTRNLSLTQVGALFYQHCDSIRNEVEAAKAVIESTHDDVSGSLRIAIPVSFSQELIANLCSGFMRLYPNVELDVQFTDNDIGLVGEGYDIAIKYGPLQSSDLVARLLFERQPILVASPGYLKTRGTPATPKELSDHSGILLGTSRSAPIWPLGKGTRKTMVSFQRKVRVNSPIMVKQLALDDFGIAMLSNSACKTELANGQLVPILQEWPMEPFKVYGVYSSRRQLATNISAFLDFFVKRFSSQESLQSLMG
notes: AccR (SO_0839), LTTR of 303 amino acids, Shewanella oneidensis; full-length; calculated molecular weight of the recombinant protein 35.6 kDa; The methods describe growth of the BL21(DE3) cells in M9 medium supplemented with selenomethionine; also called ACCase regulator; His-tagged AccR; source: E. coli BL21(DE3), pET-28a, purified (Ni-NTA, size-exclusion chromatography); not shown: His6, …
stoichiometry N [3]: 2 and 4
